± gives the uncertainty stated by the source.
Test: self-splicing fitness, log relative to wild type (ln ratio); higher = more splicing; Tetrahymena group I intron in knt gene, E. coli kanamycin selection, DiMSum; sequences stand for … in CUCUCU…GGAGGGAAAAGUUAUCAGGCAUGCACCUGGUAGCUAGUCUUUAAACCAAUAGAUUGCAUCGGUUUAAAAGGCAAGACCGUCAAAUUGCGGGAAAGGGGUCAACAGCCGUUCAGUACCAAGUCUCAGGGGAAACUUUGAGAUGGCCUUGCAAAGGGUAUGGUAAUAAGCUGACGGACAUGGUCCUAACCACGCAGCCAAGUCCUAAGUCAACAGAUCUUCUGUUGAUAUGGAUGCAGUUCACAGACUAAAUGUCGGUCGGGGAAGAUGUAUUCUUCUCAUAAGAUAUAGUCGGACCUCUCCUUAAUGGGAGCUAGCGGAUGAAGUGAUGCAACACUGGAGCCGCUGGGAACUAAUUUGUAUGCGAAAGUAUAUUGAUUAGUUUUGGAGUACUCGUGGUCG
In short: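 Six replicate transformations of E. coli BL21(DE3) with a pET-22b(+) library were grown overnight at 37°C or 30°C. The library randomised all eight P1ex-region intron nucleotides, the intron lying in the knt kanamycin-resistance gene, and plates were LB agar with or without 25 μg/mL kanamycin plus 100 μg/mL carbenicillin, 50 μM IPTG and 0.2% rhamnose. Pooled colonies were amplicon-sequenced on an Illumina HiSeq 2500, and fitness is the DiMSum error-weighted combination of wild-type-normalised replicate fold changes, kanamycin versus none.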

Sequence | self-splicing fitness (ln) (30 °C) | self-splicing fitness (ln) (37 °C)
AAACAGCAAUAUUACGUAUU | -2.17 ± 0.089 | -1.53 ± 0.097
UCUUAGCAAUAUUACGAAGU | -1.65 ± 0.15 | -1.42 ± 0.27
CUCGAGCAAUAUUACGCUUU | -4.13 ± 0.46 | -2.31 ± 0.31
AUUAAGCAAUAUUACGAGGC | -3.18 ± 0.39 | -1.99 ± 0.34
CUUAAGCAAUAUUACGAGAA | -2.01 ± 0.34 | -2.91 ± 0.47
GCCUAGCAAUAUUACGGAGC | -2.44 ± 0.13 | -1.43 ± 0.1
AGAGAGCAAUAUUACGGGAC |  | -2.61 ± 0.44
CGAUAGCAAUAUUACGAGUG | -0.68 ± 0.08 | -0.335 ± 0.096
ACCAAGCAAUAUUACGAAUC | -1.48 ± 0.18 | -1.4 ± 0.2
GCAUAGCAAUAUUACGCUAA | -2.72 ± 0.27 | -2.49 ± 0.22
GGAAAGCAAUAUUACGUAAA | -1.94 ± 0.1 | -0.563 ± 0.11
GAUCAGCAAUAUUACGACGA | -0.224 ± 0.13 | 0.262 ± 0.14
UGACAGCAAUAUUACGUGAA | -1.94 ± 0.076 | -0.332 ± 0.094
CGUGAGCAAUAUUACGAUGG | -0.492 ± 0.1 | -0.139 ± 0.13
UUUAAGCAAUAUUACGUCCA | -1.08 ± 0.22 | -0.324 ± 0.27
GACUAGCAAUAUUACGCUAU |  | -3.22 ± 0.43
CUAUAGCAAUAUUACGAGAG | -3.63 ± 0.23 | -2.73 ± 0.24
AUAAAGCAAUAUUACGUCCC | -0.201 ± 0.097 | -0.0866 ± 0.13
AUACAGCAAUAUUACGCGAU | -3.88 ± 0.33 | -1.94 ± 0.21
CGGUAGCAAUAUUACGGUCA | -0.916 ± 0.092 | -0.275 ± 0.084
GCUCAGCAAUAUUACGGGAC | -0.927 ± 0.27 | -0.928 ± 0.26
GCCCAGCAAUAUUACGACGC | -0.00307 ± 0.052 | -0.0866 ± 0.067
ACGAAGCAAUAUUACGGGAG | -3.96 ± 0.22 | -2.73 ± 0.17
AUAUAGCAAUAUUACGUGCU | -1.24 ± 0.092 | -0.807 ± 0.13
AAUUAGCAAUAUUACGCGAC | -2.66 ± 0.21 | -1.61 ± 0.24
UCGAAGCAAUAUUACGUUCC | -2.35 ± 0.33 | -0.433 ± 0.41

Sequence | self-splicing fitness (ln) (30 °C) | self-splicing fitness (ln) (37 °C)
UCCCAGCAAUAUUACGAACG | -2.94 ± 0.31 | -2.39 ± 0.29
UCAAAGCAAUAUUACGCAUC | -3.83 ± 0.19 | -3.11 ± 0.31
AUGAAGCAAUAUUACGCGUC | -4.16 ± 0.2 | -1.48 ± 0.13
CCGCAGCAAUAUUACGGUAU | -4.73 ± 0.23 | -3.44 ± 0.17
AAGUAGCAAUAUUACGACCU | 0.0875 ± 0.13 | -0.703 ± 0.17
GUGUAGCAAUAUUACGAGCG |  | -0.927 ± 0.34
ACGAAGCAAUAUUACGAUGU | -3.96 ± 0.19 | -2.74 ± 0.18
ACUAAGCAAUAUUACGAUCU | -0.809 ± 0.092 | 0.314 ± 0.1
AGCAAGCAAUAUUACGCCUA | -0.835 ± 0.08 | -0.537 ± 0.084
CCCGAGCAAUAUUACGCAAU | -3.57 ± 0.25 | -2.94 ± 0.29
ACCAAGCAAUAUUACGGGUA | -1.98 ± 0.091 | -0.405 ± 0.072
ACCUAGCAAUAUUACGUCUG | -2.84 ± 0.2 | -2.03 ± 0.15
UAAGAGCAAUAUUACGGGAG | -3.33 ± 0.24 | -1.83 ± 0.19
AUGGAGCAAUAUUACGACAC | -1.26 ± 0.32 | -1.08 ± 0.26
GUCCAGCAAUAUUACGGCUU | -0.269 ± 0.068 | 0.16 ± 0.087
AGUCAGCAAUAUUACGCCAC | -3.68 ± 0.18 | -3.11 ± 0.19
UGUUAGCAAUAUUACGACGU | -0.716 ± 0.11 | -1.37 ± 0.1
CUACAGCAAUAUUACGUAGC | -3.76 ± 0.26 | -2.54 ± 0.33
UUAAAGCAAUAUUACGUGUU | -3 ± 0.13 | -1.96 ± 0.16
AAAUAGCAAUAUUACGGUUU | -1.3 ± 0.059 | -0.657 ± 0.076
CAAAAGCAAUAUUACGGUAU | -3.42 ± 0.15 | -2.67 ± 0.15
GCAUAGCAAUAUUACGGCUC | 0.0416 ± 0.087 | -0.0445 ± 0.088
UACCAGCAAUAUUACGCAAU | -2.29 ± 0.091 | -0.841 ± 0.076
GACAAGCAAUAUUACGGUUC | -3.57 ± 0.16 | -2.81 ± 0.32
CAGAAGCAAUAUUACGAGUA | -3.2 ± 0.29 | -1.66 ± 0.22
CGUUAGCAAUAUUACGGUUU | -3.84 ± 0.34 | -2.44 ± 0.21

Sequence | self-splicing fitness (ln) (30 °C) | self-splicing fitness (ln) (37 °C)
AUCUAGCAAUAUUACGUAGA | -2.39 ± 0.12 | -0.832 ± 0.11
UGAUAGCAAUAUUACGGAAU | -2.96 ± 0.18 | -2 ± 0.23
CGCAAGCAAUAUUACGCAGG | -2.74 ± 0.12 | -1.01 ± 0.12
AUUGAGCAAUAUUACGUCAG | -2.96 ± 0.2 | -2.3 ± 0.45
UCCGAGCAAUAUUACGGAAC | -2.97 ± 0.33 | 
UGCAAGCAAUAUUACGCGUU | -2.66 ± 0.16 | -1.29 ± 0.14
CGGAAGCAAUAUUACGGGGG | -3.72 ± 0.13 | -3.16 ± 0.13
GGAGAGCAAUAUUACGACGA | -2.34 ± 0.21 | -2.08 ± 0.3
UGAAAGCAAUAUUACGCAUU | -3.13 ± 0.23 | 
GGUUAGCAAUAUUACGUGAU | -2.18 ± 0.19 | -1.14 ± 0.2
UUUGAGCAAUAUUACGCUUU |  | -1.59 ± 0.22
CCAGAGCAAUAUUACGUCAG | -2.58 ± 0.12 | -1.6 ± 0.15
UAGAAGCAAUAUUACGGUGC |  | -1.46 ± 0.48
AAAGAGCAAUAUUACGUGAA | -3.27 ± 0.14 | -2.44 ± 0.16
CUGUAGCAAUAUUACGAUCG | 0.206 ± 0.16 | 0.548 ± 0.21
CAAAAGCAAUAUUACGACAU | -2.345 ± 0.013 | -1.34 ± 0.033
UCUUAGCAAUAUUACGCCCG | -1.07 ± 0.32 | -1.34 ± 0.34
UGAAAGCAAUAUUACGAGAU | -2.93 ± 0.14 | -2.18 ± 0.19
AGGUAGCAAUAUUACGAUUG | -3.575 ± 0.026 | -2.44 ± 0.04
CCCGAGCAAUAUUACGCGCC |  | -1.22 ± 0.35
GGCUAGCAAUAUUACGUAUC | -0.368 ± 0.098 | -0.254 ± 0.12
CUAAAGCAAUAUUACGCCGG | -0.951 ± 0.16 | -0.177 ± 0.18
CGUCAGCAAUAUUACGCUCG | -2.69 ± 0.18 | -1.63 ± 0.15
UAGCAGCAAUAUUACGAUGC |  | -1.66 ± 0.49
GGUAAGCAAUAUUACGUUCG | -0.34 ± 0.15 | -0.4 ± 0.18
UAGGAGCAAUAUUACGCGGG |  | -1.24 ± 0.21
